Values quoted from earlier work, collected in paper PMC8811192.
Like-named read-outs stand apart in the source and are kept apart here.

What was measured:
OrxA (Homo sapiens) [1] = target: OrxA (Homo sapiens) (UniProt O43612)
OrxB (Homo sapiens) = OrxB (Homo sapiens) (UniProt O43612)
OrxA (Homo sapiens) [2] = target: OrxA (Homo sapiens) (UniProt O43612); remark: listed apart in the source

Substance	Kd (OrxA (Homo sapiens) [1]) [nM]	Kd (OrxB (Homo sapiens)) [nM]	Kd (OrxA (Homo sapiens) [2]) [nM]
OrxR1 (from UniProt O43613)	25	–	–
OrxR2 (from UniProt O43614)	–	40	40
